{"source": "the supplement of paper PMC12042874", "assay": "amyloid nucleation score (Sup35N fusion, yeast selection) (log enrichment); library NNK2; higher = more nucleation; inactive = no reads after selection", "procedure,_shortened": "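The nucleation score is the log enrichment of output over input reads, calculated with DiMSum and centred on the mode score of non-aggregating sequences. Sequences with under 100 input reads were excluded. Reads came from Illumina sequencing of plasmid inserts from psi-negative yeast expressing Sup35N fused to peptides of 20 random codons, induced 24 hours with 100 μM copper sulfate and grown 7 days at 30°C without adenine and uracil.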", "note": "± gives the uncertainty stated by the source.", "data": [{"substance": "SVIKQNC", "values": [{"measurement": "amyloid nucleation score", "result": "0.547 ± 0.47"}]}, {"substance": "LCRKRYVRSHTTSWQTGGAF", "values": [{"measurement": "amyloid nucleation score", "result": "0.888 ± 0.48"}]}, {"substance": "TSHVGL", "values": [{"measurement": "amyloid nucleation score", "result": "-1.39 ± 0.49"}]}, {"substance": "GIIDLIYCNAEEHSHWGDFA", "values": [{"measurement": "amyloid nucleation score", "result": "-1.17 ± 0.62"}]}, {"substance": "DQFSGNACSIIVLVSALACF", "values": [{"measurement": "amyloid nucleation score", "result": "3.01 ± 0.17"}]}, {"substance": "RGVGYYRGSICTWFNWAAMW", "values": [{"measurement": "amyloid nucleation score", "result": "1.83 ± 0.16"}]}, {"substance": "SITAIYESLNRRRNLKFKYC", "values": [{"measurement": "amyloid nucleation score", "result": "inactive"}]}, {"substance": "PGHNQKERLLQLRSI", "values": [{"measurement": "amyloid nucleation score", "result": "inactive"}]}, {"substance": "YLGRHDYKSVGGSFIPRQSK", "values": [{"measurement": "amyloid nucleation score", "result": "-0.661 ± 1.1"}]}, {"substance": "DHAYYDTSCGIRTPFVMIVR", "values": [{"measurement": "amyloid nucleation score", "result": "inactive"}]}, {"substance": "CGLNCVAGGREEDRVYVLSS", "values": [{"measurement": "amyloid nucleation score", "result": "0.088 ± 0.22"}]}, {"substance": "LKQLKISRRADNYVTQCNLV", "values": [{"measurement": "amyloid nucleation score", "result": "2.91 ± 0.11"}]}, {"substance": "KRNMSCVLYIWDWHPASLLM", "values": [{"measurement": "amyloid nucleation score", "result": "inactive"}]}, {"substance": "KGNHRRVKTSIYNFFKVSNC", "values": [{"measurement": "amyloid nucleation score", "result": "0.445 ± 0.29"}]}, {"substance": "DCAWNFWFSLVYRLVISGHS", "values": [{"measurement": "amyloid nucleation score", "result": "-0.38 ± 0.6"}]}, {"substance": "YYSDVGVYSVRGYLLWS", "values": [{"measurement": "amyloid nucleation score", "result": "-0.447 ± 0.61"}]}, {"substance": "RVSCNRVRVYCWLVWRLIPN", "values": [{"measurement": "amyloid nucleation score", "result": "inactive"}]}, {"substance": "LMLFDVKGRICGFDLCLIRR", "values": [{"measurement": "amyloid nucleation score", "result": "0.381 ± 0.62"}]}, {"substance": "PNSGFSGNCIKVIQHNLQG", "values": [{"measurement": "amyloid nucleation score", "result": "inactive"}]}, {"substance": "CCVVIKN", "values": [{"measurement": "amyloid nucleation score", "result": "6.08 ± 0.079"}]}, {"substance": "HSLRGTWMGMVSASCTPVDM", "values": [{"measurement": "amyloid nucleation score", "result": "4.27 ± 0.057"}]}, {"substance": "PDLRKDYAWLLLFLVRVRGD", "values": [{"measurement": "amyloid nucleation score", "result": "4.43 ± 0.085"}]}, {"substance": "RSGESRWTYYLVEIYFDGSF", "values": [{"measurement": "amyloid nucleation score", "result": "-0.913 ± 0.78"}]}, {"substance": "LTLYSGVRCFSSYLP", "values": [{"measurement": "amyloid nucleation score", "result": "0.012 ± 0.41"}]}, {"substance": "HNRSFILNTAKFLVVNNPLA", "values": [{"measurement": "amyloid nucleation score", "result": "inactive"}]}, {"substance": "MIVFLYRLY", "values": [{"measurement": "amyloid nucleation score", "result": "-0.061 ± 0.39"}]}, {"substance": "FSGSIVIAGGIVSMRDPGLR", "values": [{"measurement": "amyloid nucleation score", "result": "-0.596 ± 0.79"}]}, {"substance": "CIVCFVFMLKRALLLHFCIA", "values": [{"measurement": "amyloid nucleation score", "result": "-0.81 ± 1"}]}, {"substance": "DQYYNH", "values": [{"measurement": "amyloid nucleation score", "result": "0.29 ± 0.77"}]}, {"substance": "ACLFWIYARRHRLAWVVFIW", "values": [{"measurement": "amyloid nucleation score", "result": "-0.487 ± 1.1"}]}, {"substance": "VVNLDSF", "values": [{"measurement": "amyloid nucleation score", "result": "-1.95 ± 0.62"}]}, {"substance": "LMASCHKQRTCRWHPRDRRY", "values": [{"measurement": "amyloid nucleation score", "result": "0.298 ± 0.46"}]}, {"substance": "FYWNMYGDFDFDPSAPGTNG", "values": [{"measurement": "amyloid nucleation score", "result": "inactive"}]}, {"substance": "FFSVHEDRREKYLSNNV", "values": [{"measurement": "amyloid nucleation score", "result": "-2.15 ± 1.1"}]}, {"substance": "AVVFSNCGCFSMKFYMVVAT", "values": [{"measurement": "amyloid nucleation score", "result": "-2.06 ± 0.48"}]}, {"substance": "GVNKVT", "values": [{"measurement": "amyloid nucleation score", "result": "0.115 ± 1"}]}, {"substance": "MVAGITFTNASIWTYNK", "values": [{"measurement": "amyloid nucleation score", "result": "3.63 ± 0.075"}]}, {"substance": "RAATYYQFVVLVCKQSDFKR", "values": [{"measurement": "amyloid nucleation score", "result": "5.77 ± 0.095"}]}, {"substance": "YCGKTIQCSRRAPTAEDLGM", "values": [{"measurement": "amyloid nucleation score", "result": "2.76 ± 0.12"}]}, {"substance": "TGRLPLFLQGLDEYPASNPE", "values": [{"measurement": "amyloid nucleation score", "result": "-0.288 ± 1.1"}]}, {"substance": "VLTVWPYHCAIVEILSGCVL", "values": [{"measurement": "amyloid nucleation score", "result": "5.98 ± 0.081"}]}, {"substance": "AFYKFMSEHSSAVHCDPMHD", "values": [{"measurement": "amyloid nucleation score", "result": "-0.025 ± 0.76"}]}, {"substance": "IRGSKSFHLCEAK", "values": [{"measurement": "amyloid nucleation score", "result": "0.213 ± 0.33"}]}, {"substance": "NYPSVGSDIARLLRLVTRRI", "values": [{"measurement": "amyloid nucleation score", "result": "-0.313 ± 0.76"}]}, {"substance": "LSRLN", "values": [{"measurement": "amyloid nucleation score", "result": "-0.055 ± 0.53"}]}, {"substance": "AGMMFKR", "values": [{"measurement": "amyloid nucleation score", "result": "1.71 ± 0.37"}]}, {"substance": "WWVPCSLYWYSAEGPGLARA", "values": [{"measurement": "amyloid nucleation score", "result": "0.007 ± 0.31"}]}, {"substance": "STGSWTTVKLGREGAILHAL", "values": [{"measurement": "amyloid nucleation score", "result": "-0.407 ± 0.45"}]}, {"substance": "HCVDLLREMQ", "values": [{"measurement": "amyloid nucleation score", "result": "0.621 ± 0.43"}]}, {"substance": "RILLRRAKFGSR", "values": [{"measurement": "amyloid nucleation score", "result": "0.432 ± 0.21"}]}, {"substance": "TQFFFDFFE", "values": [{"measurement": "amyloid nucleation score", "result": "0.432 ± 0.4"}]}, {"substance": "RSCPFAFGEGG", "values": [{"measurement": "amyloid nucleation score", "result": "0.782 ± 0.55"}]}, {"substance": "PPDSTWYC", "values": [{"measurement": "amyloid nucleation score", "result": "0.452 ± 0.53"}]}, {"substance": "SVFLSKDIKGVNQCGGLWLS", "values": [{"measurement": "amyloid nucleation score", "result": "0.296 ± 0.25"}]}, {"substance": "NRMRVMAWCAILNKELSGGK", "values": [{"measurement": "amyloid nucleation score", "result": "0.93 ± 0.51"}]}, {"substance": "INMTLELDSVRRNLLYAGGG", "values": [{"measurement": "amyloid nucleation score", "result": "-0.142 ± 0.55"}]}, {"substance": "DTCWEGCLTKTYFW", "values": [{"measurement": "amyloid nucleation score", "result": "-1.29 ± 0.75"}]}, {"substance": "FFVTAPIGMFSLD", "values": [{"measurement": "amyloid nucleation score", "result": "-2.17 ± 0.44"}]}, {"substance": "LRFLLPPTMTVGMKFSSDAG", "values": [{"measurement": "amyloid nucleation score", "result": "0.062 ± 0.79"}]}, {"substance": "MGENVLGRQGVLPKGEI", "values": [{"measurement": "amyloid nucleation score", "result": "0.192 ± 0.45"}]}, {"substance": "TTFTIWAYMVAHQYLEIGCI", "values": [{"measurement": "amyloid nucleation score", "result": "inactive"}]}, {"substance": "LMIAFKQRFIPS", "values": [{"measurement": "amyloid nucleation score", "result": "1.12 ± 0.4"}]}, {"substance": "CSYFMGLIVILRVKCRYMLK", "values": [{"measurement": "amyloid nucleation score", "result": "-1.18 ± 0.32"}]}, {"substance": "NRGFFGSYGVPELQNMDQFE", "values": [{"measurement": "amyloid nucleation score", "result": "0.153 ± 0.79"}]}, {"substance": "GVMYSLFRNSSWGGHIMSGK", "values": [{"measurement": "amyloid nucleation score", "result": "0.818 ± 0.67"}]}, {"substance": "CTMYLALRGVW", "values": [{"measurement": "amyloid nucleation score", "result": "4.56 ± 0.056"}]}, {"substance": "KLMWERTFVCSRKRFKTYYK", "values": [{"measurement": "amyloid nucleation score", "result": "-0.359 ± 0.41"}]}, {"substance": "TFGLHIHKPRMPPHGPWFSL", "values": [{"measurement": "amyloid nucleation score", "result": "-0.172 ± 0.34"}]}, {"substance": "GDTAWFKVDQLPRLPNTRLQ", "values": [{"measurement": "amyloid nucleation score", "result": "0.998 ± 0.74"}]}, {"substance": "WRQSVQ", "values": [{"measurement": "amyloid nucleation score", "result": "1.12 ± 0.33"}]}, {"substance": "HFRVMHSFQGQYKVIFK", "values": [{"measurement": "amyloid nucleation score", "result": "2.73 ± 0.098"}]}, {"substance": "LHWGEFEYCILCARGDIKR", "values": [{"measurement": "amyloid nucleation score", "result": "-0.755 ± 0.5"}]}, {"substance": "WLYNMTRLHIPFYARNWLNS", "values": [{"measurement": "amyloid nucleation score", "result": "0.352 ± 0.37"}]}, {"substance": "RARFWINGFRVL", "values": [{"measurement": "amyloid nucleation score", "result": "inactive"}]}, {"substance": "MLKIHFLPLLGQWTLCRNPL", "values": [{"measurement": "amyloid nucleation score", "result": "1.28 ± 0.43"}]}, {"substance": "GKLSGTPWTLSGATKRALLY", "values": [{"measurement": "amyloid nucleation score", "result": "-0.494 ± 0.64"}]}, {"substance": "ESYTIDCRVFGLRGKGSTRA", "values": [{"measurement": "amyloid nucleation score", "result": "0.695 ± 0.46"}]}, {"substance": "LRMYCRVTWSISYVSSSPVL", "values": [{"measurement": "amyloid nucleation score", "result": "2.83 ± 0.087"}]}, {"substance": "IWGLIAYLDSFNNFALDRRK", "values": [{"measurement": "amyloid nucleation score", "result": "-1.03 ± 0.42"}]}, {"substance": "RRLWGIALYRVSLVVFGSLY", "values": [{"measurement": "amyloid nucleation score", "result": "-0.354 ± 0.25"}]}, {"substance": "SVKYFLDSVDVWIDIISAFF", "values": [{"measurement": "amyloid nucleation score", "result": "0.256 ± 0.55"}]}, {"substance": "WLPNRRNVPYAVESVCS", "values": [{"measurement": "amyloid nucleation score", "result": "0.971 ± 0.33"}]}, {"substance": "QPGSLMGNRPKESVRASRAR", "values": [{"measurement": "amyloid nucleation score", "result": "-0.104 ± 0.45"}]}, {"substance": "SHGCGHRL", "values": [{"measurement": "amyloid nucleation score", "result": "-0.051 ± 0.79"}]}, {"substance": "LFLSGKEIPMNVFTIVCTDP", "values": [{"measurement": "amyloid nucleation score", "result": "inactive"}]}, {"substance": "VYFELVPVGTYL", "values": [{"measurement": "amyloid nucleation score", "result": "-0.214 ± 1"}]}, {"substance": "FLVFHPRDSMNI", "values": [{"measurement": "amyloid nucleation score", "result": "1.49 ± 0.44"}]}]}
